Data taken from patent US7037670B2, “Peptide substrates for assay of extracellular signal-regulated protein kinase 1 and 2 activity” (Board of Supervisors of Louisiana State University and …, priority 2002, dated 2006).
Like-named read-outs stand apart in the source and are kept apart here. Ends that are not written are not given here.

Experiments:
ERK1/2 = experiment: In vitro kinase assay on PC12 cellular extracts with no further purification (with and without nerve growth factor); type: biochemical, rat; conditions: for pattern and degree of ERK activation over time compared with ERK immunoprecipitation and blot immunolabeling assays: PC12 cells with and without NGF, up to 480 min, extracts without purification; for levels of protein kinase activity in cellular extracts: PC12 extracts, no kinase purification, EGTA, calmidazolium, cAMP-dependent protein kinase inhibitor present
Experimental: Cells were treated with or without added 100 ng/ml 7S nerve growth factor for up to 8 h. One group of cells was harvested for blot immunolabeling and solubilized with sodium dodecyl sulfate solution, as described in J. W. Haycock, “Multiple forms of tyrosine hydroxylase in human neuroblastoma cells: Quantitation with isoform-specific antibodies,” J. Neurochem., vol. […] A second group of cells was harvested for kinase assays and subjected to trituration in an ice-cold lysis solution of 50 mM β-glycerophosphate, 1 mM EGTA, 1 mM dithiothreitol, 1 mM benzamidine (Eastman Kodak Co., Rochester, N.Y.), 0.1 mM Na3VO4, 10 μg/ml leupeptin, and 0.05% Tween 20. Supernatants from the latter samples were generated by sonication and centrifugation (20 min at 10,000×g) in a refrigerated centrifuge (Savant, Farmingdale, N.J.). In some experiments, ERK1/2 was isolated prior to assaying kinase activity by immunoprecipitation of the PC12 cellular extracts with anti-pan ERK1/2 and protein A-Sepharose. […] ERK activity assays: Aliquots of supernatants or ERK1/2 immunoprecipitates (suspended in lysis solution) were mixed with substrate (1 mM final, unless stated otherwise) at 4° C. Phosphorylation reactions were initiated by addition of an equal volume of assay buffer containing [γ-^32P]ATP (NEN Life Sciences Products, now PerkinElmer Life Sciences, Boston, Mass.) and Mg^++ and allowed to proceed for 10 min at 30° C., after which duplicate 20 μl aliquots were spotted onto Whatman P81 paper. […] Experiments were conducted to test the ability of different substrates to assay for activation of ERK1/2 in situ. […] Cells were harvested and-assayed for ERK1/2 activity by various methods.

ERK1 = ERK1 (Rattus norvegicus, UniProt P21708); experiment: Phosphorylation of substrates by purified, activated ERK1 (32P incorporation, P81 paper); type: biochemical; conditions: for RELATIVE 32P INCORPORATION (% OF MBP): peptides 1 mM, MBP 20 μM, 10 min at 30° C., median of three determinations
From the text: Materials: Purified peptides were obtained from Sigma (St. Louis, Mo.) or custom synthesized by Louisiana State University Health Science Center Core Laboratories (New Orleans La.). Purified, activated ERK1 was a gift from Dr. M. H. Cobb (University of Texas Southwestern Medical Center, Dallas, Tex.). Purified, recombinant, activated ERK2 was a gift from Dr. N. G. Ahn (University of Colorado, Boulder, Colo.). Except as indicated below, other materials were purchased from Sigma. The new synthetic peptides modeled after Ser31 in human tyrosine hydroxylase are indicated.
(§1) ERK activity assays: Aliquots of supernatants or ERK1/2 immunoprecipitates (suspended in lysis solution) were mixed with substrate (1 mM final, unless stated otherwise) at 4° C. Phosphorylation reactions were initiated by addition of an equal volume of assay buffer containing [γ-^32P]ATP (NEN Life Sciences Products, now PerkinElmer Life Sciences, Boston, Mass.) and Mg^++ and allowed to proceed for 10 min at 30° C., after which duplicate 20 μl aliquots were spotted onto Whatman P81 paper. As would be predicted by the presence of multiple basic residues in the peptides, the ability of P81 paper to bind >90% of each of the peptides used in Tables 2 and 3 was confirmed by UV detection following RP-HPLC. The final reaction mixtures (50 μl) contained 50 mM β-glycerophosphate, 10 mM MgCl2, 1 mM EGTA, 1 mM dithiothreitol, 1 mM benzamidine, 0.1 mM ATP, 0.1 mM Na3VO4, 10 μM calmidazolium, 2 μM peptide inhibitor of cyclic AMP-dependent protein kinase ([…], SEQ ID NO: 24), 10 μg/ml leupeptin, and 0.025% Tween 20.
To test the effectiveness of various peptide substrates, peptide substrates were compared with myelin basic protein (“MBP,” SEQ ED NO: 1) for relative ability to be phosphorylated by purified ERK1 or ERK2. The ERK activity assay was as described above in Example 1. In Table 2, each value represents the median of three independent determinations, performed in duplicate. While all peptides were assayed at a concentration of 1 mM, MBP phosphorylation—given as a frame of reference at a concentration typically used in such assays—was assayed at 20 μM. ^32P incorporation into MBPtide (SEQ ID NO: 2) was 330 nmol/min/mg under the assay conditions used.

MAP kinase = conditions: reported, Kameshita et al., 1997; cited from earlier work
ERK2 [1] = target: T1, ERK2 (Rattus norvegicus, UniProt P63086); experiment: Steady-state kinetic analyses of peptide substrates for ERK2; type: biochemical; conditions: for Kmin(app) / Vmax(app) Relative: median of three determinations; for Vmax(app) Relative: relative values
Experimental: as §1
In Table 5, each value represents the median of three independent determinations, performed in duplicate. […] See I. Kameshita et al., 1997. […] 355, pp. 5641-5646 (1996); see also C. N. Prowse et al., “Catalytic reaction pathway for the mitogen-activated protein kinase ERK2,” Biochem., vol. 39, pp. 6258-6266 (2000).

ERK2 [2] = target: T1, ERK2; experiment: Phosphorylation of TH Ser31-containing peptides by purified, recombinant, activated ERK2; type: biochemical; conditions: for RELATIVE 32P INCORPORATION (% 3.0 μmol/min/mg) Mean: mean of four determinations; for RELATIVE 32P INCORPORATION (% 3.3 μmol/min/mg): substrate 1 mM, median of three determinations
From the text: Materials: Purified peptides were obtained from Sigma (St. Louis, Mo.) or custom synthesized by Louisiana State University Health Science Center Core Laboratories (New Orleans La.). Purified, activated ERK1 was a gift from Dr. M. H. Cobb (University of Texas Southwestern Medical Center, Dallas, Tex.). Purified, recombinant, activated ERK2 was a gift from Dr. N. G. Ahn (University of Colorado, Boulder, Colo.). Except as indicated below, other materials were purchased from Sigma. The new synthetic peptides modeled after […] in human tyrosine hydroxylase are indicated. ERK activity assays: Aliquots of supernatants or ERK1/2 immunoprecipitates (suspended in lysis solution) were mixed with substrate (1 mM final, unless stated otherwise) at 4° C. Phosphorylation reactions were initiated by addition of an equal volume of assay buffer containing [γ-^32P]ATP (NEN Life Sciences Products, now PerkinElmer Life Sciences, Boston, Mass.) and Mg^++ and allowed to proceed for 10 min at 30° C., after which duplicate 20 μl aliquots were spotted onto Whatman P81 paper. As would be predicted by the presence of multiple basic residues in the peptides, the ability of P81 paper to bind >90% of each of the peptides used in Tables 2 and 3 was confirmed by UV detection following RP-HPLC. The final reaction mixtures (50 μl) contained 50 mM β-glycerophosphate, 10 mM MgCl2, 1 mM EGTA, 1 mM dithiothreitol, 1 mM benzamidine, 0.1 mM ATP, 0.1 mM Na3VO4, 10 μM calmidazolium, 2 μM peptide inhibitor of cyclic AMP-dependent protein kinase ([…] ID NO: 24), 10 μg/ml leupeptin, and 0.025% Tween 20. Table 3 indicates the relative phosphorylation of TH-[…]-containing peptides by purified ERK2. […] These new substrates were assayed for the relative phosphorylation by purified ERK2 similar to the experiments that generated Table 3.

ERK2 [3] = target: T1, ERK2; conditions: described previously by Robinson et al., 1996; cited from earlier work
ERK2 [4] = target: T1, ERK2; conditions: stated for MBP protein as contrast to the peptides; cited from earlier work

T1 sequence (P63086 2-358 limits assumed): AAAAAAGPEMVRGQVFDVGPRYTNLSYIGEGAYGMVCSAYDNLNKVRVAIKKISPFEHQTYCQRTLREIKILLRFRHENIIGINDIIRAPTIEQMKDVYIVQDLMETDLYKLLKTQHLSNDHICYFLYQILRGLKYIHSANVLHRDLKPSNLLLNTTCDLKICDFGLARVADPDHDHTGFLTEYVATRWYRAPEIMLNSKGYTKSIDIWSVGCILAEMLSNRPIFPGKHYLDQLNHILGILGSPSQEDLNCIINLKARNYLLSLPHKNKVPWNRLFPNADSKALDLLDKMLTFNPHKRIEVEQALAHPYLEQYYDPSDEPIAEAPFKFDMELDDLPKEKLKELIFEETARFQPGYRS
Sequence of ERK1 (P21708 2-380 limits assumed): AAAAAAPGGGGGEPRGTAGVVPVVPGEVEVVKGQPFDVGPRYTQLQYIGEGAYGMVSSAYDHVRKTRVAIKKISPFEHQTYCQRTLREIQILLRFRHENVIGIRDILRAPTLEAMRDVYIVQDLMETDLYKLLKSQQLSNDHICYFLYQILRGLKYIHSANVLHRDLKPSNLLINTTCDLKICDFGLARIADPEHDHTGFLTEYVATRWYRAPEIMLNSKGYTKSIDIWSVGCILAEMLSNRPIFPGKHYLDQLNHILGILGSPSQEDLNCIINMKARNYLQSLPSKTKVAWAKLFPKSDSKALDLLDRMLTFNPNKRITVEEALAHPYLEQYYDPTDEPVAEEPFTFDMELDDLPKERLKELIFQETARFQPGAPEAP

RELATIVE 32P INCORPORATION (% OF MBP) (ERK1) | RELATIVE 32P INCORPORATION (% 3.0 μmol/min/mg) Mean (ERK2 [2]) | RELATIVE 32P INCORPORATION (% 3.3 μmol/min/mg) (ERK2 [2]) | Molecule | further results
– | 100 % 3.0 μmol/min/mg | 80 % 3.3 μmol/min/mg | YQAEAIMSPRFIGRRQ (This sequence is new and based on TH-31 type 1 HUMAN.) [SEQ ID NO: 13] | pattern and degree of ERK activation over time compared with ERK immunoprecipitation and blot immunolabeling assays (ERK1/2): faithfully reproduced; Kmin(app) (ERK2 [1]): 1.0 mM
– | 215 % 3.0 μmol/min/mg | – | YQATGPLSPGFRR-NH2 [SEQ ID NO: 18] | –
– | 117 % 3.0 μmol/min/mg | 100 % 3.3 μmol/min/mg | YQAEAIMSPRFIGRR-NH2 [SEQ ID NO: 14] | –
– | – | 2 % 3.3 μmol/min/mg | EAIMVRGQSPRFK (This sequence is based on TH-Ser31 type 2 HUMAN.) [SEQ ID NO: 22] | –
– | 107 % 3.0 μmol/min/mg | – | QAEAIMSPRFGRR-NH2 [SEQ ID NO: 15] | –
– | 143 % 3.0 μmol/min/mg | – | QATGPLSPGPFRR-NH2 [SEQ ID NO: 17] | –
– | – | 1 % 3.3 μmol/min/mg | YIMVRGQSPR (This sequence is based on TH-Ser31 type 2 HUMAN.) [SEQ ID NO: 21] | –
– | 182 % 3.0 μmol/min/mg | – | QATGPLSPGFRR-NH2 [SEQ ID NO: 19] | –
– | – | 1 % 3.3 μmol/min/mg | IMVRGQSPR (This sequence is based on TH-Ser31 type 2 HUMAN.) [SEQ ID NO: 20] | –
– | 164 % 3.0 μmol/min/mg | – | YQATGPLSPGPFRR-NH2 [SEQ ID NO: 16] | –

The remaining lines, values behind:

Molecule | RELATIVE 32P INCORPORATION (% OF MBP) (ERK1) | RELATIVE 32P INCORPORATION (% 3.0 μmol/min/mg) Mean (ERK2 [2]) | RELATIVE 32P INCORPORATION (% 3.3 μmol/min/mg) (ERK2 [2]) | further results
APRTPGGRR (This sequence is MBPtide (Thr 97).) [SEQ ID NO: 2] | 28 % OF MBP | – | – | pattern and degree of ERK activation over time compared with ERK immunoprecipitation and blot immunolabeling assays (ERK1/2): differed; levels of protein kinase activity in cellular extracts (ERK1/2): Higher levels of protein kinase activity; 32P incorporation (ERK1; peptide 1 mM, assay conditions of Table 2): 330 nmol/min/mg; Km (MAP kinase): 1600 µM; Kmin(app) (ERK2 [1]): 2.0 mM; Vmax(app) Relative (ERK2 [1]): 46
RRELVEPLTPSGEA (This sequence is EGF Receptor (Thr669).) [SEQ ID NO: 3] | 13 % OF MBP | – | – | –
AVTSPRFIGRR (This sequence is based on TH-Ser31 (rat).) [SEQ ID NO: 8] | – | – | 9 % 3.3 μmol/min/mg | –
KQAEAVTSPR (This sequence is based on TH-Ser31 (rat).) [SEQ ID NO: 7] | 5 % OF MBP | – | 7 % 3.3 μmol/min/mg | Kmin(app) (ERK2 [1]): 1.8 mM; Vmax(app) Relative (ERK2 [1]): 9
AIMSPRFIGRR (This sequence is based on TH-31 type 1 HUMAN.) [SEQ ID NO: 11] | – | – | 29 % 3.3 μmol/min/mg | –
RRAVSEQDAK (This sequence is TH (rat) Ser19.) [SEQ ID NO: 5] | <1 % OF MBP | – | – | –
EAIMSPRFIGRR (This sequence is based on TH-31 type 1 HUMAN.) [SEQ ID NO: 12] | – | – | 41 % 3.3 μmol/min/mg | –
EAIMSPRFK (This sequence is based on TH-31 type 1 HUMAN.) [SEQ ID NO: 10] | – | – | 21 % 3.3 μmol/min/mg | Kmin(app) (ERK2 [1]): 1.4 mM; Vmax(app) Relative (ERK2 [1]): 42
ATGPLSPGPFGRR (ATGPLSPFGRR; This sequence is ERKtide.) [SEQ ID NO: 23] | – | – | – | pattern and degree of ERK activation over time compared with ERK immunoprecipitation and blot immunolabeling assays (ERK1/2): faithfully reproduced; apparent Vmax (ERK2 [1]): 9.4 µmol/min/mg; Kmin(app) (ERK2 [1]): 0.6 mM; Vmax(app) Relative (ERK2 [1]): 82; Km (ERK2 [3]): 450 µM
EAVTSPRFIGRR (This sequence is based on TH-Ser31 (rat).) [SEQ ID NO: 9] | – | – | 20 % 3.3 μmol/min/mg | –
GRRQSLIEDAR (This sequence is TH (rat) Ser40.) [SEQ ID NO: 6] | <1 % OF MBP | – | – | –
PTPSAPSPQPK (This sequence is TH (rat) Ser8.) [SEQ ID NO: 4] | <1 % OF MBP | – | – | –
. . . KNIVTPRTPPPS . . . (protein, listed as Bos taurus) AAQKRPSQRSKYLASASTMDHARHGFLPRHRDTGILDSLGRFFGSDRGAPKRGSGKDGHHAARTTHYGSLPQKAQGHRPQDENPVVHFFKNIVTPRTPPPSQGKGRGLSLSRFSWGAEGQKPGFGYGGRASDYKSAHKGLKGHDAQGTLSKIFKLGGRDSRSGSPMARR | 100 % OF MBP | – | – | pattern and degree of ERK activation over time compared with ERK immunoprecipitation and blot immunolabeling assays (ERK1/2): differed; levels of protein kinase activity in cellular extracts (ERK1/2): Higher levels of protein kinase activity; Km (ERK2 [4]): 10 to 50 µM
